Assay [1] concerns the target spin labeled S697C mutant of C99 (human) (UniProt P05067). Put plainly: continuous wave EPR of spin labeled protein.
Assay [2] has as its target spin labeled L705C mutant of C99 (human) (UniProt P05067). The experiment in a line: continuous wave EPR of spin labeled protein.

“spin labeled S697C mutant of C99 (from UniProt P05067 672-770) (domain or fragment)”: the KD, average of four fits (sites S697C and L705C, two fields each) in assay [1] is 0.44 mol%.

Turning to “spin labeled L705C mutant of C99 (from UniProt P05067 672-770) (domain or fragment)”, the KD, average of four fits (sites S697C and L705C, two fields each) in assay [2] stood at 0.44 mol%.
